Measured values: the supplement of paper PMC12636428

System: Saccharomyces cerevisiae
Assay: transcriptional activation domain activity (GFP:mCherry ratio, weighted mean of sorted bins, harmonized to initial dataset scale) (arbitrary fluorescence ratio units); higher = stronger transcriptional activation
Details: beta-estradiol 1 µM; induction time 4 h
Outline: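 In diploid yeast carrying a GFP reporter, barcoded protein tiles fused to an estradiol-inducible synthetic transcription factor were integrated at the URA3 locus. Cultures diluted 1:5 into SC with 1 uM beta-estradiol were kept at 30 °C for 4 hours, then sorted by GFP:mCherry ratio into 8 bins before barcode sequencing. Tiles with under 50 reads were excluded. The activation activity reported here is the read-weighted mean of bin median fluorescence, averaged across barcodes and linearly rescaled to the initial dataset.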

Row | Sequence | transcriptional activation domain activity
1 | MHTPFLFLPPCPSRTRLLLFFSLILFLLVLVPAPCHAQPWNLGTLFFIFWLAS | 52700
2 | MHTSRAAWIHSKPADKAEAVAPHPHIAESGVGHSSHVGTHPKLSGDPNSPWRE | 45900
3 | MHVAYFMVLFFFIVLIDAHLVVPYIFDVELLTYMLNDAFKFDLFGCFCKVIVI | 68900
4 | MHVYVYIIIYNNIWYCMVYSINIHIFVNNYYLLRLLAIYYSYCFIVLLFIMFF | 43500
5 | MHYIGGYLVLFYFFLFLFFFYFFFFSPFFYFLPFLFFLFFSIPYFFFFAPFVS | 39700
6 | MHYLGLFRALDYNASSLIGVVNIDYTTVIYLIIEELIILLLTLAKRNVATQYA | 61800
7 | MHYRSAILCHSFILYCLVVVLGVFFKVILVLIYNRVCVPLIVLCLFSYSLSLV | 59100
8 | MHYRYIAGFFFVHTFSCGQGLKDSNLILQCVPLYPQLHPFFLIFLHFFVFLSL | 70600
9 | MHYTTLLYFIYISFNFFTLILILFFNPFFFVSILSFSFLLFLFCCCSISEVVV | 64300
10 | MHYVFLPFFFFFLLFFLLFPLFFFFLPSFHLLLFLSSSLLLSFLSLAPATSHH | 38800
11 | MIASHPSPFLSRLFGLPLLFFSSFIEVSLFFLFFLPSLRFLFFFFPSLALFFF | 42700
12 | MIASSPGGILCGILLFLLFFLLPCDLPLPFVSCFFSLFSPFLMFLFFLPYFFS | 40700
13 | MIAVFFYYFLLFFYITCEFPVLCCGSLFFFFFFFFCFCDIYCISFCLLAHYHY | 44300
14 | MICCDLSFGGKLFCKQLFLLLLVFCAILHYNWRWVYSDVLVMILMLAMIISLA | 43600
15 | MIDILFFVLFHFFDVLFFSLFCLFLCIILFSSLTFLIYYFFFFFLFFPFFGLF | 36500
16 | MIELCLWVFSLLVLPRFGLRNFEVRINVALRELLLTITWGRLAIHVSLLRLVV | 49000
17 | MIEMMAFRIALGFVGGLGLDGVWCGFFFPFKFVVFSFLHTLSISLGLDFFFLL | 91700

Row | Sequence | transcriptional activation domain activity
18 | MIERCLMMGPSLGLYVFDLFLLEVGYLAFYAHFNLFSMFAYVFPFIPLVGIRC | 41500
19 | MIFFLLFFFSFHQVYFSLFSFRRIFLLSFLLLLLPFLLFACVLFSLLTFCPFL | 41900
20 | MIFFLPLVFTSFFFIFFYMYYTVWTLHLSFVKSLEACMNPWIWELYGSTFIHL | 60000
21 | MIFIYMIFIYVIFLFLYFYIFFYFLFFIFIIFICCYFIFLYYLFSYFPFFLFY | 43500
22 | MIFMLDANPSYGTLFILLPYLLSLIIPVLITSVLLSDIFFFFISYCMLCLSCC | 52200
23 | MIFMPSCCGFFISMFTTYGTLFSIRGILTYNPFFLCTFLFPFLFHGVPCLFLF | 49700
24 | MIFSLFLSYNPLFYFIYYYLFYFSCFLLLILIAIITIIAILLCILEFHVPKSL | 51600
25 | MIFSNLLVLSLLCSLFLFFYFFFYVLCFFLFAYTLSRSLYITILGFFDLVIVF | 66200
26 | MIGDGGRVFRVHSSLSLSFVIFFFSVLLFFFCPFSFVFYCIYAFLVPGLVVLV | 35200
27 | MIGHDYLLVVVPIPILSLLHVSLLPYFFYFFVLVLVFLYLFLLRFLSFLLLLL | 65700
28 | MIGHWFVLLNLISNWIVLSSFSILFYIYIYMPLYCHYAPFIFMLFLLYIPLLI | 48800
29 | MIGVCWVGGGIGVWCFCELTSSSFYPIDLVDFFFSFFCFLNFLLAFDFGLLLA | 57000
30 | MIGVVCALYLFFFPSFFLLFFFSTLLDDDTLIIYKFFLLWESWFVAFILFFYL | 24900
31 | MIHCMLLVGSTCPFFSLFLIAYFYDAIYDLAQFDMWSLLLCIYWDISPIFLFP | 48100
32 | MIHGLQSYNLSFLIFFLFLLSSLFVLFVMLSKFAFVLFVDTLYCLIPYVFLFF | 42500
33 | MIHLLQYAYLFLFLLMLYDTLCHAILFFLTLNLTNWWYPIPFNMILHFIVPLF | 45300
34 | MIHSAIIAWYCVFGLVFLLIVICIFHQFSSHRSSPWYFIQNWTRAFGFLSYIL | 66700
